The experiment addresses BCL-XL (UniProt Q07817). Briefly: SPR. On the technique in general: Surface plasmon resonance follows binding to a sensor surface in real time, without labels.
UniProt Q07817, sequence (Q07817 whole entry): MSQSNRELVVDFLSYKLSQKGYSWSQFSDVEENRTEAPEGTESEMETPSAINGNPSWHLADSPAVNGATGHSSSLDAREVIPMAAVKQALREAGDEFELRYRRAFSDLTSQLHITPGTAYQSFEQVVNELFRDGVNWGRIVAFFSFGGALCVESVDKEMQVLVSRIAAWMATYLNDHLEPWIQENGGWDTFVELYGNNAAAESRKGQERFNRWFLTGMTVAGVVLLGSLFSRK

Consider NLWAAQRYGRELRRMSDEFVDSFKKG [BADS BH3 peptide], for which the fold higher affinity than BIMS2A BH3 for MCL-1 worked out at 20 fold.

For the origin of these results see paper PMC3894413.
